Laboratory results taken from publication PMC12888920, “MMP-9 regulates disulphide isomerase activity of TGM2 to enhance fusion glycoprotein-mediated syncytium formation of respiratory syncytial virus” (Protein & Cell, 2025).

Target: T1, purified human MMP-9 (human, UniProt P14780 20-707)
T1 construct: human matrix metalloproteinase 9; May be the same protein as MMP-9-6x His; Methods are in the supplementary file; source: purified
Test: BLI; ForteBio Octet; who was immobilised and buffer not told in the text shown; three biological replicates
Conditions: both partners purified

T1 sequence (P14780 20-707): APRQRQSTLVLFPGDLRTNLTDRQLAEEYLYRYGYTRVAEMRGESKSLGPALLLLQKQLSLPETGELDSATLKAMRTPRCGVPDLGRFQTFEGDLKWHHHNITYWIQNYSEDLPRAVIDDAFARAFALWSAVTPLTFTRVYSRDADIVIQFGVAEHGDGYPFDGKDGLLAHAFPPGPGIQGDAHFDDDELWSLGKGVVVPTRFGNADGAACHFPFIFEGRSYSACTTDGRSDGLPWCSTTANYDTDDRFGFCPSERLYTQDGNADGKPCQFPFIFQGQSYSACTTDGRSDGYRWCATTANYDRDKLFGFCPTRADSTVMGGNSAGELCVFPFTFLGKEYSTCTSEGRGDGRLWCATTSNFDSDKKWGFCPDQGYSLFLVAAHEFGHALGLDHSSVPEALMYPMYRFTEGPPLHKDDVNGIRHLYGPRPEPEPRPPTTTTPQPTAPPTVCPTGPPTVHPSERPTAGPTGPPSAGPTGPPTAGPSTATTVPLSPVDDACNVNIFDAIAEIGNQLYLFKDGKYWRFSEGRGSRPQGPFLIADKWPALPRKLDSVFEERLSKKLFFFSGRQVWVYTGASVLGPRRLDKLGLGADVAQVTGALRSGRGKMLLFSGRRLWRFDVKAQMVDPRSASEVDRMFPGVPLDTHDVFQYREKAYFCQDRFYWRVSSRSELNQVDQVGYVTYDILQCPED

B1: purified human TGM2 (transglutaminase 2) (enzyme, UniProt P21980 1-687, looked up)
chain: MAEELVLERCDLELETNGRDHHTADLCREKLVVRRGQPFWLTLHFEGRNYEASVDSLTFSVVTGPAPSQEAGTKARFPLRDAVEEGDWTATVVDQQDCTLSLQLTTPANAPIGLYRLSLEASTGYQGSSFVLGHFILLFNAWCPADAVYLDSEEERQEYVLTQQGFIYQGSAKFIKNIPWNFGQFEDGILDICLILLDVNPKFLKNAGRDCSRRSSPVYVGRVVSGMVNCNDDQGVLLGRWDNNYGDGVSPMSWIGSVDILRRWKNHGCQRVKYGQCWVFAAVACTVLRCLGIPTRVVTNYNSAHDQNSNLLIEYFRNEFGEIQGDKSEMIWNFHCWVESWMTRPDLQPGYEGWQALDPTPQEKSEGTYCCGPVPVRAIKEGDLSTKYDAPFVFAEVNADVVDWIQQDDGSVHKSINRSLIVGLKISTKSVGRDEREDITHTYKYPEGSSEEREAFTRANHLNKLAEKEETGMAMRIRVGQSMNMGSDFDVFAHITNNTAEEYVCRLLLCARTVSYNGILGPECGTKYLLNLNLEPFSEKSVPLCILYEKYRDCLTESNLIKVRALLVEPVINSYLLAERDLYLENPEIKIRILGEPKQKRKLVAEVSLQNPLPVALEGCTFTVEGAGLTEEQKTVEIPDPVEAGEEVKVRMDLLPLHMGLHKLVVNFESDKLKAVKGFRNVIIGPA
notes: human transglutaminase 2; the purified protein's band is called full-length TGM2 (100 kDa) in the cleavage assay; The printed 100 kDa for full-length TGM2 is larger than the native protein; also called recombinant TGM2; source: purified
  Kd: 1980 nM
